Our source for the protein stability index values is the supplement of paper PMC10567573.

Sequences and labels used below:
B1: SNAP91 (parent)
chain: FATASAAVPVSTSKPSSDLLDLQP
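Further: lentivirally expressed fusions sorted by FACS into six bins by GFP to DsRed ratio, PSI derived from sequencing read proportions per bin multiplied by bin number.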

In this data set the parent is B1. The data set can be described thus: protein stability index of a GFP-peptide fusion (GPS, HEK-293T) (PSI 1-6); higher = more stable. To be noted: c terminus: a fixed tail appended.
FATASAAVPVSTSKPSSDLYDLQP [L20Y]: the protein stability index is 3.74.
For FATASAAVPVSTSKPSSELLDLQP [D18E], the protein stability index was 3.98.
The result for FATASAAVPVSTSKPSSKLLDLQP [D18K] reads 2.98; that for FATASAAVPVSTSKPSSVLLDLQP [D18V], 3.17.
Regarding FATASAAVPVSTSKPSSTLLDLQP [D18T], the protein stability index was found to be 3.17.
FATASAAVPVSTSKPSSILLDLQP [D18I]: the protein stability index amounted to 3.37.
The result for FATASAAVPVSTSKPSSYLLDLQP [D18Y] reads 3.37; that for FATASAAVPVSTSKPSSRLLDLQP [D18R], 2.84.
The result for FATASAAVPVSTSKPSSSLLDLQP [D18S] reads 2.99.
The result for FATASAAVPVSTSKPSSLLLDLQP [D18L] reads 2.77; that for FATASAAVPVSTSKPSSNLLDLQP [D18N], 3.14.
Turning to FATASAAVPVSTSKPSSWLLDLQP [D18W], the protein stability index amounted to 2.13.
The result for FATASAAVPVSTSKPSSFLLDLQP [D18F] reads 2.23.
With FATASAAVPVSTSKPSSALLDLQP [D18A], the protein stability index was 3.44.
The result for FATASAAVPVSTSKPSSPLLDLQP [D18P] reads 3.3.
The result for FATASAAVPVSTSKPSSHLLDLQP [D18H] reads 3.04; that for FATASAAVPVSTSKPSSCLLDLQP [D18C], 3.42.
The result for FATASAAVPVSTSKPSSGLLDLQP [D18G] reads 3.42.
On to FATASAAVPVSTSKPSSQLLDLQP [D18Q], for which the protein stability index worked out at 3.19.
The result for FATASAAVPVSTSKPSSMLLDLQP [D18M] reads 2.87; that for FATASAAVPVSTSKPSSDPLDLQP [L19P], 4.39.
As for FATASAAVPVSTSKPSSDNLDLQP [L19N], the protein stability index is 4.32.
The result for FATASAAVPVSTSKPSSDWLDLQP [L19W] reads 2.5; that for FATASAAVPVSTSKPSSDGLDLQP [L19G], 4.12.
The result for FATASAAVPVSTSKPSSDYLDLQP [L19Y] reads 3.56; that for FATASAAVPVSTSKPSSDILDLQP [L19I], 3.95; that for FATASAAVPVSTSKPSSDELDLQP [L19E], 4.59.
The result for FATASAAVPVSTSKPSSDFLDLQP [L19F] reads 3.7; that for FATASAAVPVSTSKPSSDHLDLQP [L19H], 4.26; that for FATASAAVPVSTSKPSSDDLDLQP [L19D], 4.64.
As to FATASAAVPVSTSKPSSDMLDLQP [L19M], the protein stability index stood at 3.81.
The result for FATASAAVPVSTSKPSSDCLDLQP [L19C] reads 4.06; that for FATASAAVPVSTSKPSSDRLDLQP [L19R], 3.98; that for FATASAAVPVSTSKPSSDALDLQP [L19A], 4.02.
The result for FATASAAVPVSTSKPSSDSLDLQP [L19S] reads 4.35.
The result for FATASAAVPVSTSKPSSDVLDLQP [L19V] reads 3.95.
Turning to FATASAAVPVSTSKPSSDQLDLQP [L19Q], the protein stability index came to 3.96.
The result for FATASAAVPVSTSKPSSDKLDLQP [L19K] reads 3.79; that for FATASAAVPVSTSKPSSDTLDLQP [L19T], 4.22; that for FATASAAVPVSTSKPSSDLLDHQP [L22H], 4.07.
The result for FATASAAVPVSTSKPSSDLLDDQP [L22D] reads 4.22.
The result for FATASAAVPVSTSKPSSDLLDRQP [L22R] reads 4.14; that for FATASAAVPVSTSKPSSDLLDGQP [L22G], 3.93.
For FATASAAVPVSTSKPSSDLLDCQP [L22C], the protein stability index stood at 3.84.
The result for FATASAAVPVSTSKPSSDLLDQQP [L22Q] reads 4.3.
The result for FATASAAVPVSTSKPSSDLLDEQP [L22E] reads 4.76; that for FATASAAVPVSTSKPSSDLLDKQP [L22K], 4.16; that for FATASAAVPVSTSKPSSDLLDNQP [L22N], 4.4.
The result for FATASAAVPVSTSKPSSDLLDAQP [L22A] reads 4.49.
Consider FATASAAVPVSTSKPSSDLLDIQP [L22I], for which the protein stability index came out at 3.71.
For FATASAAVPVSTSKPSSDLLDYQP [L22Y], the protein stability index is 3.99.
The result for FATASAAVPVSTSKPSSDLLDPQP [L22P] reads 4.4; that for FATASAAVPVSTSKPSSDLLDTQP [L22T], 4.3.
For FATASAAVPVSTSKPSSDLLDSQP [L22S], the protein stability index turned out to be 4.16.
The result for FATASAAVPVSTSKPSSDLLDWQP [L22W] reads 2.96; that for FATASAAVPVSTSKPSSDLLDVQP [L22V], 3.85; that for FATASAAVPVSTSKPSSDLLDMQP [L22M], 3.87.
The result for FATASAAVPVSTSKPSSDLLDFQP [L22F] reads 3.59; that for FATASAAVPVSTSKPSSDLLDLQW [P24W], 2.35.
Consider FATASAAVPVSTSKPSSDLLDLQC [P24C], for which the protein stability index was determined as 3.56.
The result for FATASAAVPVSTSKPSSDLLDLQD [P24D] reads 4.52; that for FATASAAVPVSTSKPSSDLLDLQH [P24H], 3.74.
The result for FATASAAVPVSTSKPSSDLLDLQI [P24I] reads 3.3.
The result for FATASAAVPVSTSKPSSDLLDLQS [P24S] reads 3.64; that for FATASAAVPVSTSKPSSDLLDLQG [P24G], 3.63; that for FATASAAVPVSTSKPSSDLLDLQA [P24A], 3.94.
As to FATASAAVPVSTSKPSSDLLDLQV [P24V], the protein stability index amounted to 3.41.
The result for FATASAAVPVSTSKPSSDLLDLQL [P24L] reads 3.1; that for FATASAAVPVSTSKPSSDLLDLQR [P24R], 3.71.
The result for FATASAAVPVSTSKPSSDLLDLQF [P24F] reads 2.8; that for FATASAAVPVSTSKPSSDLLDLQM [P24M], 3.52.
The result for FATASAAVPVSTSKPSSDLLDLQE [P24E] reads 4.53.
For FATASAAVPVSTSKPSSDLLDLQN [P24N], the protein stability index was found to be 3.43.
The result for FATASAAVPVSTSKPSSDLLDLQT [P24T] reads 3.88; that for FATASAAVPVSTSKPSSDLLDLQQ [P24Q], 4.06.
The result for FATASAAVPVSTSKPSSDLLDLQY [P24Y] reads 3.27; that for FATASAAVPVSTSKPSSDLLDLQK [P24K], 4.34.
The result for FATASAAVPVSTSKPSHDLLDLQP [S17H] reads 3.66.
With FATASAAVPVSTSKPSNDLLDLQP [S17N], the protein stability index was 3.85.
Take FATASAAVPVSTSKPSGDLLDLQP [S17G]: the protein stability index is 3.68.
The result for FATASAAVPVSTSKPSMDLLDLQP [S17M] reads 3.56; that for FATASAAVPVSTSKPSEDLLDLQP [S17E], 4.13.
The result for FATASAAVPVSTSKPSPDLLDLQP [S17P] reads 3.79; that for FATASAAVPVSTSKPSFDLLDLQP [S17F], 2.51; that for FATASAAVPVSTSKPSIDLLDLQP [S17I], 2.88.
The result for FATASAAVPVSTSKPSTDLLDLQP [S17T] reads 4.21; that for FATASAAVPVSTSKPSKDLLDLQP [S17K], 3.47; that for FATASAAVPVSTSKPSVDLLDLQP [S17V], 3.47.
Take FATASAAVPVSTSKPSYDLLDLQP [S17Y]: the protein stability index was determined as 3.2.
The result for FATASAAVPVSTSKPSDDLLDLQP [S17D] reads 4.22; that for FATASAAVPVSTSKPSRDLLDLQP [S17R], 3.25.
The result for FATASAAVPVSTSKPSLDLLDLQP [S17L] reads 3.35; that for FATASAAVPVSTSKPSWDLLDLQP [S17W], 3.31; that for FATASAAVPVSTSKPSQDLLDLQP [S17Q], 3.72.
